Measurements as given in patent US20220396612A1 (UNIVERSIT DE TOURS, published 2022).
Where a chain is given by its changes, count along the chain named.

Tests used:
[1] = target: T1, virus-like particles (VLPs) of JC polyomavirus VP-1 protein (JC virus (JCPyV), UniProt P03089 1-354, Assembled into virus-like particles (many VP-1 copies); the letters give one VP-1 chain.); experiment: ELISA on coated VLP (detection limit OD>0.5)
T1 construct: Expressed in insect cells by baculovirus; VLPs coated on ELISA plates; also called JCPyV VLPs; JCPyV
Experimental: (§1) To do this, the VLPs produced were deposited at a concentration of 1 μg/mL in PBS and incubated overnight at +4° C. The wells were then blocked for 1 h at +37° C. with a PBS/FCS (phosphate-buffered saline/fetal calf serum) mixture. After dilution in a dilution buffer containing FCS, PBS and Tween® 20, the various hybridoma culture supernatants were added for 1 h at +37° C. The wells were washed four times in a row with Wash Buffer and a secondary anti-mouse antibody coupled to peroxidase was added to the 1:2000 dilution for 1 h at +37° C. The wells were washed four more times and the substrate (OPD (ortho phenylene diamine)+H₂O₂) was added for 30 min at room temperature. A stop solution (H₂SO₄ 4N) was then added and each well was read by measuring the absorbance at 492 nm with a spectrophotometer. The value obtained for the average of the control wells (PBS in the first step) is subtracted from the optical density values obtained for each well.

[2] = target: T2, virus-like particles (VLPs) of BK polyomavirus VP-1 protein, serotype Ib2 (BK virus (BKPyV), serotype Ib2, PA …, UniProt P03088 1-362); experiment: ELISA on coated VLP (detection limit OD>0.5)
T2 construct: native VLPs; also the immunogen; also called VLP Ib2; BK Ib2
T2 chain: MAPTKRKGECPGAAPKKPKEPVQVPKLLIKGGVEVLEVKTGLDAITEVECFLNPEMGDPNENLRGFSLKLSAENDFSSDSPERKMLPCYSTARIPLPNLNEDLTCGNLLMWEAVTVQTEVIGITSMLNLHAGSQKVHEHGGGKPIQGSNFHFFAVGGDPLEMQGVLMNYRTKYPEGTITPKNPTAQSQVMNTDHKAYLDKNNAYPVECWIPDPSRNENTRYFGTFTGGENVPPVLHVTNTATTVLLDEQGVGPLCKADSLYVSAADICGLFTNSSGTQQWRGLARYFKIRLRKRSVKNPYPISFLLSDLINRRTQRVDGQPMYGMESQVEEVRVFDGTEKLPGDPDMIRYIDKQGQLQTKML
Experimental: as §1

[3] = target: T3, virus-like particles (VLPs) of BK polyomavirus VP-1 protein, serotype Ia (BK virus (BKPyV), serotype Ia, UniProt P03088 1-361); experiment: ELISA on coated VLP;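 note: hybridoma culture supernatants (mouse antibodies) tested on wells coated with 1 µg/mL VLPs, peroxidase anti-mouse detection with OPD, background from PBS-coated control wells subtracted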
T3 construct: self-assembled native VLPs coated on ELISA plates; also called VLP Ia; BKV VP-1, serotype Ia
T3 chain: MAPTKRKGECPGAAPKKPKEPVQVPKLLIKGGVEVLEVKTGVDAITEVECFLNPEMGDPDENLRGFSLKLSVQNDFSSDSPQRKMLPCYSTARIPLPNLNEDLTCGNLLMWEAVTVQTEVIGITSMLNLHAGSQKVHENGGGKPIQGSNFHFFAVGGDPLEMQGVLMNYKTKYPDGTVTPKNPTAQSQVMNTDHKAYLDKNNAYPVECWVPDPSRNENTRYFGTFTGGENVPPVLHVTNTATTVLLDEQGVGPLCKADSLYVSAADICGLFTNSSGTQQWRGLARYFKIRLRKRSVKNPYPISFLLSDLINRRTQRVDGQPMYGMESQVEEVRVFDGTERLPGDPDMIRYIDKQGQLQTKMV
Experimental: as §1

[4] = target: T4, virus-like particles (VLPs) of BK polyomavirus VP-1 protein, serotype IV (BK virus (BKPyV), serotype IV, UniProt P14996 1-362); experiment: ELISA on coated VLP;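 note: hybridoma culture supernatants (mouse antibodies) tested on wells coated with 1 µg/mL VLPs, peroxidase anti-mouse detection with OPD, background from PBS-coated control wells subtracted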
T4 construct: native VLPs; also called VLP IV
T4 chain: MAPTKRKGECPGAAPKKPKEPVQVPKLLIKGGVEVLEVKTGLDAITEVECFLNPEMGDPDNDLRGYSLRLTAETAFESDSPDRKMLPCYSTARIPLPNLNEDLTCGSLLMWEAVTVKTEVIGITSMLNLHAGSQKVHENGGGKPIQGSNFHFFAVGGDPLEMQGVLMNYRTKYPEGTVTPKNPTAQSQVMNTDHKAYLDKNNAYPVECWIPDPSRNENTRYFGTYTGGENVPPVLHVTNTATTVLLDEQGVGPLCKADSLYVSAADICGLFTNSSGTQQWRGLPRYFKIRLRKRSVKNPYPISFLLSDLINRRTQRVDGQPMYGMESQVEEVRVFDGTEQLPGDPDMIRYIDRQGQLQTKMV
Experimental: as §1

[5] = target: T5, virus-like particles (VLPs) of BK polyomavirus VP-1 protein, serotype III (BK virus (BKPyV), serotype III, UniProt P14996 1-362); experiment: ELISA on coated VLP;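 note: hybridoma culture supernatants (mouse antibodies) tested on wells coated with 1 µg/mL VLPs, peroxidase anti-mouse detection with OPD, background from PBS-coated control wells subtracted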
T5 construct: native VLPs; also called VLP III
T5 chain: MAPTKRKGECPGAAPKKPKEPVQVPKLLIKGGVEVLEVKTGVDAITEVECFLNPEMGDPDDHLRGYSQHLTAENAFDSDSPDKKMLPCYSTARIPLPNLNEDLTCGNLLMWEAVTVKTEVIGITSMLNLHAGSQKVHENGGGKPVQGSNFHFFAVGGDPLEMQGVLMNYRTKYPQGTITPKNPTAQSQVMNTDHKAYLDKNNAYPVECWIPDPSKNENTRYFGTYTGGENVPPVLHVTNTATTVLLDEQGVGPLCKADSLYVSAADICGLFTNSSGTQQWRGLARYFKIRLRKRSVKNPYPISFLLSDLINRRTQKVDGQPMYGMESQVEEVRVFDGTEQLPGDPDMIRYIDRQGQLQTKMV
Experimental: as §1

[6] = target: T6, virus-like particles (VLPs) of BK polyomavirus VP-1 protein, serotype II (BK virus (BKPyV), serotype II, UniProt P14996 1-362); experiment: ELISA on coated VLP;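 note: hybridoma culture supernatants (mouse antibodies) tested on wells coated with 1 µg/mL VLPs, peroxidase anti-mouse detection with OPD, background from PBS-coated control wells subtracted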
T6 construct: native VLPs; also called VLP II
T6 chain: T5 chain with K16R, H62N, Q68L, H69K, K215R
Experimental: as §1

[7] = target: T2, virus-like particles (VLPs) of BK …; experiment: ELISA on coated VLP
Experimental: as §1

[8] = target: T1, virus-like particles (VLPs) of JC …; experiment: ELISA on coated JCPyV VLPs
[9] = target: T4, virus-like particles (VLPs) of BK …; experiment: ELISA on coated VLP; supernatant 1/20
Experimental: as §1

[10] = target: T2, virus-like particles (VLPs) of BK …; experiment: ELISA on coated VLP; supernatant 1/20
Experimental: as §1

T1 sequence (P03089 whole entry): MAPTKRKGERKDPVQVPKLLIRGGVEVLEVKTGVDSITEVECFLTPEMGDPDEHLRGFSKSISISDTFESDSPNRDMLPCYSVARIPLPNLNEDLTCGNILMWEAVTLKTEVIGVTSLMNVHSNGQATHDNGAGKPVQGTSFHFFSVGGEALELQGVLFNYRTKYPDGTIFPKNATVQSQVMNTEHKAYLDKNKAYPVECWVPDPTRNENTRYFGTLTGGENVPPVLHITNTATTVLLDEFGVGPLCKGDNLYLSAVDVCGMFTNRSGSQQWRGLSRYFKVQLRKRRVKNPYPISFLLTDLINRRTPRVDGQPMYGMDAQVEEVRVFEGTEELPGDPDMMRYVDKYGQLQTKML

B1: monoclonal antibody ‘18A2’ derived from hybridoma 18A2 (antibody, V domains shown)
VH: DVQLQESGPGLVKPSQSLSLTCSVTGYSITSGYYWNWIRQFPGNKLEWMGYISYDGSNNYNPSLKNRISITRDTSKNQFFLKLNSVTTEDTATYYCARWEGTTDYWGQGTTLTVSS
VL: not shown
notes: Mouse hybridoma antibody
- OD 492 nm [1]: 0.116 OD
- OD 492 nm [2]: 0.565 OD
- OD 492 nm [3]: 2.22 OD
- OD 492 nm [4]: 1.22 OD
- OD 492 nm [5]: 0.763 OD
- OD 492 nm [6]: 1.05 OD
- OD 492 nm [7]: 3.02 OD
- binding result [8]: no binding (tested: detection limit: OD>0.5)

B2: monoclonal antibody ‘H6’ secreted by clone BK6A2H6 (antibody, V domains shown)
VH: EVQLQQSGPELVKPGASVKISCKASGYSFTGYFMNWVKQSHGKSLEWIGRINPYNGDTFYNQKFKGKATLTVDKSSSTAHMELLSLTSEDSAVYYCGSYYYGDYFDYWGQGTTLTVSS
VL: SIVMTQIPKFLLVSEGDRVTITCKASQSVSNDVAWYQQKSGQSPKLLIYYASNRYTGVPDRFTGSGYGTDFTFTISTVQAEDLAVYFCQQDYSSPLTFGAGTKLELKR
- OD 492 nm [1]: 0.013 OD
- OD 492 nm [2]: 2.97 OD
- OD 492 nm [3]: 3.06 OD
- OD 492 nm [4]: 3.21 OD
- OD 492 nm [5]: 0.481 OD
- OD 492 nm [6]: 0.86 OD
- OD 492 nm [7]: 3.19 OD
- binding result [8]: no binding (tested: detection limit: OD>0.5)
- OD 492 nm [9]: 3.21 OD
- OD 492 nm [10]: 0.82 OD

B3: monoclonal antibody ‘F6’ secreted by clone BK6A2F6 (antibody)
heavy: EVQLQQSGPELVKPGASVKISCKASGYSFTGYFMNWVKQSHGKSLEWIGRINPYNGDTFYNQKFKGKATLTVDKSSSTAHMELLSLTSEDSAVYYCGSYYYGDYFDYWGQGTTLTVSSAKTTPPSVYPLAPGSAAQTNSMVTLGCLVKGYFPEPVTVTWNSGSLSSGVHTFPAVLQSDLYTLSSSVTVPSSTWPSETVTCNVAHPASSTKVDKKIVPRDCGCKPCICTVPEVSSVFIFPPKPKDVLTITLTPKVTCVVVDISKDDPEVQFSWFVDDVEVHTAQTQPREEQFNSTFRSVSELPIMHQDWLNGKEFKCRVNSAAFPAPIEKTISKTKGRPKAPQVYTIPPPKEQMAKDKVSLTCMITDFFPEDITVEWQWNGQPAENYKNTQPIMDTDGSYFVYSKLNVQKSNWEAGNTFTCSVLHEGLHNHHTEKSLSHSPGK
light: […]
- OD 492 nm [1]: 0.028 OD
- OD 492 nm [2]: 3 OD
- OD 492 nm [3]: 3.23 OD
- OD 492 nm [4]: 3.16 OD
- OD 492 nm [5]: 0.42 OD
- OD 492 nm [6]: 1.65 OD
- OD 492 nm [7]: 2.89 OD
- binding result [8]: no binding (tested: detection limit: OD>0.5)
- OD 492 nm [9]: 3.16 OD
- OD 492 nm [10]: 1.22 OD
